According to US20200262918A1 (Stanford University, published 2020):

B1: Mouse KWAR23 anti-SIRPα antibody (antibody, V domains shown)
VH: EVQLQQSGAELVKPGASVKLSCTASGFNIKDYYIHWVQQRTEQGLEWIGRIDPEDGETKYAPKFQDKATITADTSSNTAYLHLSSLTSEDTAVYYCARWGAYWGQGTLVTVSS
VL: QIVLTQSPAIMSASPGEKVTLTCSASSSVSSSYLYWYQQKPGSSPKLWIYSTSNLASGVPARFSGSGSGTSYSLTISSMEAEDAASYFCHQWSSYPRTFGAGTKLELK
notes: also called mouse antibody; mKWAR
B2: Humanized KWAR23 anti-SIRPα antibody (antibody, V domains shown)
VH: EVQLVQSGAEVKKPGATVKISCKVSGFNIKDYYIHWVQQAPGKGLEWIGRIDPEDGETKYAPKFQDRATITADTSTDTAYMELSSLRSEDTAVYYCARWGAYWGQGTLVTVSS
VL: QIVLTQSPPTLSLSPGERVTLTCSASSSVSSSYLYWYQQKPGQAPKLWIYSTSNLASGVPARFSGSGSGTSYTLTISSLQPEDFAVYFCHQWSSYPRTFGAGTKLEIK
notes: The phagocytosis assays used HuKwar-G1, a human IgG1 with N297A; also called HuKwar-G1; HuKWar-G1

Molecular target: human SIRPα (human, UniProt P78324 31-373)
Sequence (P78324 31-504): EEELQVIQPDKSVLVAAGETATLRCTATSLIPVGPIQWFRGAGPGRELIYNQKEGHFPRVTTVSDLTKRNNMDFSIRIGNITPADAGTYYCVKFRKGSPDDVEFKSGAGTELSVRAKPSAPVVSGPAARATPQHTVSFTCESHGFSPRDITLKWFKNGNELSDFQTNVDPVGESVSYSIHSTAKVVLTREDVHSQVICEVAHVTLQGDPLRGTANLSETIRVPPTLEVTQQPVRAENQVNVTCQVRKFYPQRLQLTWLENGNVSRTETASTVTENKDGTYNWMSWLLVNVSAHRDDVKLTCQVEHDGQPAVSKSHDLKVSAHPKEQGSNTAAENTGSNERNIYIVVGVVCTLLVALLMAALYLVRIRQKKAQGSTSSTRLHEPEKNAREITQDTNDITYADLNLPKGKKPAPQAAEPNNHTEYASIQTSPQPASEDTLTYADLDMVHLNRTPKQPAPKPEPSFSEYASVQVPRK
Experiment: Biacore (SPR), format not stated

Row | Binder | Kd
1 | B1 | 1.18 nM
2 | B2 | 1.54 nM
